Experiment: yeast display, Sf9 membrane polyspecificity reagent, FACS + sequencing; frameworks hold sequencing errors
In short: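 Galactose induction of a Saccharomyces cerevisiae BJ5465 synthetic nanobody display library ran 36–48 hours. The cells were then stained for 1 hour at 4 °C with 10% biotinylated, detergent-solubilized Sf9 membrane reagent, pulled down on streptavidin microbeads and FACS-sorted into low and high (top ~1%) gates on expression and reagent-binding fluorescence. Labels for polyreactivity follow the gate of origin.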
In the case of “QVQLVESGGGLVQAGGSLRLSCAASGSIFAPNAMGWYRQAPGKERELVARISRTGGSTNYADSVKGRFTISRDNAKNTVYLQMNSLKPEDTAVYYCNTQYSYSSAPPFWYTQMYYWGQGTQVTVSS”, the “polyreactivity (PSR sort gate)” value is reported as “high polyreactivity”.
With “QVQLVESGGGLVQAGGSLRLSCAASGSIFLYYAMGWYRQAPGKVRALLAAISWDGGSTYYADSVKGRFTISRDNAKNTVYLQMNSLKPEDTAVYYCNKAPYYYLPHSLRYNYWGQGTQVTVSS” the “polyreactivity (PSR sort gate)” value was “high polyreactivity”.
For “QVQLVESGGGLVQAGGSLRLTCAASGFTFPDKAMGWYRQAPGNERELVAALTTSGGRTYYADSVKGRFTISRDNAKNTVYLQMNRLKPEDTAVYYCARPSRQSHWYYYWGQGTQVTVSS”, the “polyreactivity (PSR sort gate)” value was “high polyreactivity”.
With “QVQLVESGGGLVQAGGSLRLSCAASGNTFVFYTMGWSRQAPGKERELVAAITSSGVRTSYADSVKGRFSISRDNAKNTVYLQMNSLKPEDTAVYYCAASLRASPSFGYWGQGTQVTVSS” the “polyreactivity (PSR sort gate)” value was “high polyreactivity”.
With “QVQLVESGGGLVQAGGSLRLSCAASGRNFYLYAMGWYRPAPGKERELVAAITRRGGSTYYADSVKGRFTISRDNAKNTVYLQMNSLKPEDTAVYYCAADRPGTGYSDYDYWGQGTQVTVSS” the “polyreactivity (PSR sort gate)” value was “high polyreactivity”.
In the case of “QVQLVESGGGLVQAGGSLRLSCAAYGSTFSWYTMGWYRQAPGKERELVAAISWSGGRTYYADSVKGRFTISRDNAKNTVYLQMNSLKPEDTAVYYCAAYDYRYSLGDYQFYYWGQGTQVTVSS”, the “polyreactivity (PSR sort gate)” value is reported as “low polyreactivity”.
In the case of “QVQLVESGGGLVQAGGSLRLSCAASGRTFIYYAMGWYRQAPGKERELVAAITYSGTSTYYADAVKGRFTISRDNAKNTVYLQMNSLKPEDTAVYYCAKDGQRDAKYNWGQGTQVTVSS”, the “polyreactivity (PSR sort gate)” value is reported as “low polyreactivity”.
For “HVQLVESGGGLVQAGGSLRVSCAASGRTFWSYTMGWYRQAPGKERELVASITYRGGSTYYADSVKGRFTISRDNAKNTVYLQMNSQKPEDTAVYYCNARYKRYSYDYWGQGTQVTVTS”, the “polyreactivity (PSR sort gate)” value was “high polyreactivity”.
With “QVQLVESGGGLVQAGGSLRLSCAASGRTFAQNAMGWYRQAPGKERELVAAISSGGGRTYYADSVKGRFTISRDNAKNTVFLQMNSLKREDTAVYYCAAQGWLSYRYSPLKFGYWGQGTQVTVSS” the “polyreactivity (PSR sort gate)” value was “high polyreactivity”.
In the case of “QVQLVESGGGLVQAGGSLRLSCAASGFIFEGNAMGWYRQAPGKERELVAAISSSSGRTRYADSVKGRFTISRDNAKNTVYLQMNSLKPEDTAVYYCAARRQSTRPGFYYWGQGTQVTVSS”, the “polyreactivity (PSR sort gate)” value is reported as “high polyreactivity”.
For “QVQLVESGGGLVQAGGSLRLSCAASGRTLSRYTMGWYRQAPGKERELVAAISTSGSTYYADSVKGRFTISRDNAKNTVYFQMNSLKPEDTAVYYCNAVRRFLQYATGYDYWRQGTQVTVSS”, the “polyreactivity (PSR sort gate)” value was “high polyreactivity”.
With “QVQLVESGGALVQAGCSLRLSCAASGRTFGRNTMGWYRQAPGKERELVAGISRSAGRTYYADSVKGRFTISRDNAKNNVYLQMNSLKAEDTAVYYCAARYQGNYRTDKYDYWGQGTQVTVSS” the “polyreactivity (PSR sort gate)” value was “high polyreactivity”.
With “QVQLVDSGGGLVQAGGSLRLSCAASGFTFSTNAMGWYRQAPGKERELVAGITSSGGNTYYADSVKGRFTISRDNAKNTVYLQMNSLKPEDTAVYYCAKRRNYVAYDYWGQGTQVTVSS” the “polyreactivity (PSR sort gate)” value was “high polyreactivity”.
In the case of “QVQLQESGGGLVQAGGSLRLSCAASGYIFVDYTMGWHRQAPGKERELVATINLGATSYYADSVKGRFTISRDNAKNTVYQQMNSLKPEDTAVYYCAVALQQVNYFPYWCQGTQVTVSS”, the “polyreactivity (PSR sort gate)” value is reported as “low polyreactivity”.
With “QVQLVESGGGLVQAGGSLRLSCAASGFTFDSYAMGWYRQAPGKERELVAAITWDGGSTYYADSVKGRFTISRDNAKNTVYLPMNSLKPEDTAVYYCAAVSGFYDQYDYWGQGTQVTVSS” the “polyreactivity (PSR sort gate)” value was “low polyreactivity”.
For “QVQLQESCGGLVQAGGSLRLSCAASGSIFDGFNMGWYRQAPGKEREFVAAISYGASTYYADSVKGRFTVSRDNAKNSVYLQMNSLKPEDTAVYYCAVYDELYHVLVYWGRGTQVTVSS”, the “polyreactivity (PSR sort gate)” value was “low polyreactivity”.
With “QVQLVESGGGLVQAGGSLRLSCAASGSIFDWYVMGWYRQARGKERELVAAITSTGSTYYADSVKGRFTISRDNAKNTVYLQMNSLKPEDTAVYYCAAQRYSTFTYDYWGQGTQVTVSS” the “polyreactivity (PSR sort gate)” value was “low polyreactivity”.
With “QVQLVESGGGLVQAGGSLRLSCAASGRTFGRYAMGWSRQAPGKERELVAAINRGGSTKYADSVKGRFTISRDNAKNTVYLQMNSLKPEDTAVYYCAKDRHPAVHYDYWGQGTQVTVSS” the “polyreactivity (PSR sort gate)” value was “low polyreactivity”.
With “QVQLVESGGGLVQAGGSLRLSCAASGRIFPKYAMGWYRQAPGKERELVAAITGIGTSTYYADSVKGRFTISRDNAKNTVYLQMNSLKPEDTAVYYCAADTWTIVDYGYWGQGTQVTVSS” the “polyreactivity (PSR sort gate)” value was “low polyreactivity”.
For “QVQLVESGGGLVQAGGSLRLSCAASGYIFGQYAMGWYRQAPGKERELVAAIRRSGGRTYYADSVKGRFTISRDNAKNTVYLQMNSLKPEDTAVYYCNKGPPQTSWRTTLFDYWGQGTQVTVSS”, the “polyreactivity (PSR sort gate)” value was “high polyreactivity”.
For “QVQHVESVGGLVQAGGSLRLSSATSGSIFITNAMGCYRQPPGKESELVAAIRDSGDRTYYADSVKGRFTISRDNGKNNVSLQMNSLKPEDTAVYYCNARCQEPLNYDYWGQGTQGTVSS”, the “polyreactivity (PSR sort gate)” value was “low polyreactivity”.
In the case of “QVQLVESGGGLVQAGGSLRLSCAASGLTFWYYAMGWYRQAPGKERELVAAITSVGSTYYADSVKGRFTISRDNAKNTVYLQMNSLKPEDTAVYYCAAGVPPLYFRRGGDYWGQGTQGTVSS”, the “polyreactivity (PSR sort gate)” value is reported as “high polyreactivity”.
With “QVQLVESGGGLVKAGGSLRLSCAASGFILRAYAMGWYRQAPGKEREFVAAITRRGGRTYYADSVKGRFTISRDNAKKTVSLQMYSLKPEDTAVYYCNRVERRGTYDYWGQGTQVTVSS” the “polyreactivity (PSR sort gate)” value was “high polyreactivity”.
In the case of “QVQLVESGGGLVQAGGSLRLSCAASGSIFAYYTMGWYRQAPGKEREFVAAISYSGGSTYYADSVKGRFTISRDNAKNTVYLQMNSLKPEDTAVYYCFPGKTRLYGYWGQGTQVTVSS”, the “polyreactivity (PSR sort gate)” value is reported as “high polyreactivity”.
With “QVQLVESGGGLVQAGGSLRLSCAASGIIFRVYAMGWYRQAPGKERELVAAITKGGGRTYYADSVKGRFTISRDIAKNTVYLQMNCLIPEDTAVYYCAARSSSRFEYWGQGTEVTVSS” the “polyreactivity (PSR sort gate)” value was “high polyreactivity”.
In the case of “QVQLVDSGGGLVQAGGSLRLSCAASGRTFSLYAMGWYRQAPGKERELVATISQSGGSTYYADSVKGRFTISRDNAKNTVYLQMNSQKPEDTAVYNCAAGGIYLDYFGQGTQVTVSS”, the “polyreactivity (PSR sort gate)” value is reported as “low polyreactivity”.
For “QVQLVESGGGLVQAGGSLRLSCAASGSTFASYVMGGYSQAPGKERELVAGIDVRGVSTYYADSVKGRFTISRDNAKNTVYLQMNSLKPEDTAVYYCAIDNRYEMDYWGQGTQVTVSS”, the “polyreactivity (PSR sort gate)” value was “low polyreactivity”.
With “QVQLVESGGGLVQAGGSLRLSCAASGITFGRNTMGWYRQAPGKERELVASISYSGTTTYYADSVKGRFTISRDNAKNTVYLQMNSLKPEDTAVYYCNKRWRYYDMDYWGQGTQVTVSS” the “polyreactivity (PSR sort gate)” value was “low polyreactivity”.
For “QVQLVESGGGLVQSGGSLRLSCAASGFIFGEYTMGWNRQAPGKEREFVAAISWSGGSTSYADSVKGRFTISRDNAKNTVYLQMNSLKPEDTAVYYCAARYGSDYDYWGQGTQVTVSS”, the “polyreactivity (PSR sort gate)” value was “low polyreactivity”.
For “QVQLVESGGGLVQAGGSLRLSCAASGLTFDVYAMGWYRQAPGKERELVAAISSIGGSTYYADSVKGRFTISRDNAKNTVYLQMNSLKPEDTAVYYCNADYFGGGDYWGQGTQVTVSS”, the “polyreactivity (PSR sort gate)” value was “low polyreactivity”.
With “QVQLVESGGGLVQAGGSLRLSCAASGSIFSSYAMGWYRQAPGKERELVASISSGGSTNYADSVKGRFTISRDNAKNTVYLQMNSLKPEDTAVYYCNVDLYNWRGDSTGYDYWGQGTQVTVSS” the “polyreactivity (PSR sort gate)” value was “low polyreactivity”.
In the case of “QVQLVESGGGLVQAGGSLRLSCAASGRIWLYAMGWYRQAPGKERELVAAISWTDGRTRYADSVKGRFTISRDNAKNTVYLQMNRLKPEDTAVYYCAPVVDRGYRRVKYYYWGQGTQVSVSS”, the “polyreactivity (PSR sort gate)” value is reported as “high polyreactivity”.
In the case of “QVQLVESGGGLVQAGGSLRLSCAASGFTFYLYTMGWYRQAPGKERELVATITSDGGTNYADSVKGRFTISRDNAKNTVYLQMNSLKPEDTAVYYCNAASRRGSRKQAKYDYWGQGTQVTVSS”, the “polyreactivity (PSR sort gate)” value is reported as “low polyreactivity”.
In the case of “QVQLVESGGGIVQAGGSLRLSCAASGSSINLYAMGWYRQAPGKERELVAAINDDAGSTYYADSVKGRFTISRDNAKNTVYLQMNSLKPEDTAVYYCNAGSRSTEYDYWGQGTQVTVSS”, the “polyreactivity (PSR sort gate)” value is reported as “low polyreactivity”.
For “QDQLVESGGGLVQAGGSHRLSCAASGFIIGYYAMGWYRQAPGKEMELVASIRRGGSTYYADSVKGRFTISRDNAKNTVYLQMNSLKPEDTAVYYCAAQRSVVGWWSRTSLYGDSDYWGLGTQVTVSS”, the “polyreactivity (PSR sort gate)” value was “high polyreactivity”.
With “QVHLVESVGGLVQAGGSLRLSSPASGGTLWVNTMGWYRQAPGKERELVAAISRRGGSTYYADSVKGRFTISRDNAKNTVYLQMNSRKPEDTAVYYCNARENAVSLRDYWGQGTQVTVSS” the “polyreactivity (PSR sort gate)” value was “high polyreactivity”.
In the case of “QVQLVESGGGLVQAGGSLRLSCAASGITFRGYAMGWYRQAPGKERELVAAITGSGTSTYADSVKGRFTISRGNAKNTVYLQMNSLKPEDTAVYYCAADTYDPFYYGYGYWGQGTQVTVSS”, the “polyreactivity (PSR sort gate)” value is reported as “low polyreactivity”.
For “QVQLVESGGGLVQAGGSLRLSCSASGSTFRGYAMGWYRQAPGKDRELVAAISWSGGSTYYADSVKGRFTISRDHAKNTVYLQMNSLKPVDTAVYYCNAVGYLDFEWGQGTQVTVSS”, the “polyreactivity (PSR sort gate)” value was “low polyreactivity”.
In the case of “QVQLVESGGGLVQAGGSLRLSCAASGRTFSKYAMGWYRQAPGKERELVAAITRSGSSTYYADSVKGRFTISRDNAKNTVYLQMNCLKPEDTAVYYCAADRYLRSSGSAPDYGYWGQGTQVTVSS”, the “polyreactivity (PSR sort gate)” value is reported as “low polyreactivity”.
With “QVQLVESGGGLVQAGGSLRLSCAASGSIFAFYAMGWYRQSPGKERELVAAISYNGGSTYYADSVKVRFTLSRDNAKNTVYLQMNSLEPEDTAVYYCAAYHFSAPSEYDYWGQGTQVTVSS” the “polyreactivity (PSR sort gate)” value was “low polyreactivity”.
With “QVQLVESGVGSVQAGGSLRLSCAASGATFPGNAMGWYRQAPGKERELVAAIRDRGTSTYDADSVKGRFTISRDNAKNTVYLQMNSLKPEDTAVYYCAAASRVAKGRWRLYDYWGQGTQVTLSS” the “polyreactivity (PSR sort gate)” value was “high polyreactivity”.
With “QVQLVESGGGLVQAGGSLRLSCAASGSTLGYNVMGWYRQAPGKERELVAAISGDGSTNYADSVNGRFTMSRDNAKNTVYLQMNSLKPEDTAVYYCNAPFWGYRTSFSYPVVLRFDYWGQGTQVTVSS” the “polyreactivity (PSR sort gate)” value was “low polyreactivity”.
With “QVQLVESGGGLVQAGGSLRLSCAASGRIFDGNAMGWYRQAPGKERELVAAISSSGGSTYYADSVKGRFTISRDNAKNTVYLQMNSLKPEDTAVYYCAYPLRRTWGNYRYGYWGQGTQVTVSS” the “polyreactivity (PSR sort gate)” value was “high polyreactivity”.

Reference: the nanobody polyreactivity screen of Harvey et al. (2022)
